One molecule from US9266937 (UNIVERSITY OF CENTRAL FLORIDA RESEARCH FOUNDATION, dated 2016) can be followed below.

The target of the assay is T1, IL-7R/Fc fusion protein.
T1 construct: Loaded on the SPR chip; also called IL-7 receptor
In words: SPR, IL-7R/Fc loaded chip, Scrubber2. The method, then:
Fc fusion protein was determined by surface plasmon resonance (SPR). Association (Ka), Dissociation (Kd) and total binding constant (KD) were calculated using the Scrubber2 program (BioLogic Software).

T1 sequence (P16871 whole entry, the tested form may be a part): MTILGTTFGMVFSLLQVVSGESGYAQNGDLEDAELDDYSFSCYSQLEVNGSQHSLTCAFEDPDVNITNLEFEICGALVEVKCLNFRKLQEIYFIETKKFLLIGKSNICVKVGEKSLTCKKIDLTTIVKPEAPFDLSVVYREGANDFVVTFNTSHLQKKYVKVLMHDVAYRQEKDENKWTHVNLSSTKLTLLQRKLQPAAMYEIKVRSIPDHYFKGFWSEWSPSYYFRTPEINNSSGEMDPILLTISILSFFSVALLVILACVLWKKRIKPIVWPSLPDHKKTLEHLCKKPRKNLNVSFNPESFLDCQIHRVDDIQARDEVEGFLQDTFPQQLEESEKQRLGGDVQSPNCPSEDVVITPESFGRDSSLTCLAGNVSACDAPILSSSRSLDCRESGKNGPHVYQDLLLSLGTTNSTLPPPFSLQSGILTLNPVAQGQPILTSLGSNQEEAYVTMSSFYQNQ

B1: IL-7AT, attenuated IL-7 with Thr97 substituted by Val (ligand)
chain: DCDIEGKDGKQYESVLMVSIDQLLDSMKEIGSNCLNNEFNFFKRHICDANKEGMFLFRAARKLRQFLKMNSVGDFDLHLLKVSEGTTILLNCTGQVKGRKPAALGEAQPTKSLEENKSLKEQKKLNDLCFLKRLLQEIKTCWNKILMGTKEH
notes: also called IL-7 ligand; HMM-IL-7AT
Take B1: the affinity, expressed as Kd, was 100 nM.
